Laboratory results as given in paper PMC10794523.

Molecular target: T1, Sif (Lmo0946-His6) (Listeria monocytogenes EGD-e) (UniProt Q8Y8F8)
T1 sequence: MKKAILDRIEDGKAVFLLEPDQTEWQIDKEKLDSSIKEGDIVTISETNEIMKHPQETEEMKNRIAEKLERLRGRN
Assay: EMSA
Details: EMSA 37 C 30 min, 4.2% native PAGE, ethidium bromide stain; binding buffer not stated (protein dialyzed in 20 mM Tris-HCl pH 8.0, 150 mM NaCl, 1% glycerol)

For “AGCGAATTAGCTCAAGTCCTCCATACCCCGTCGCGCCAATGATTGAAACTTTCATCCTAACCCCTCCCCGTTAATTATTAAATGATACTTTTCATTATAATGATGTATATTTATAATGTCAAATGGTTTTTTATTAATATTTAAAACTATTTTATGCATTTTAAGTTATTTATTATGTATATAATATACAAAAAACCGTTTATCCTTTTCTAGGATAAACGGTTAATCTTAAAATAAATCAGCGAACTCATCTTTCACTTGCGCAGTTTCCGCTAC (double strand) [argC promoter region]”, the binding was “no binding”.
“GCGGTATGTTTCCACTGTCGCTGTAATACCTGATTGTTCTTTAGAAAGGTCGCGTAGTCGCTTTGGATCAGATACTACATCTGGATCACTTAGTAGTTCATTTAGTTCATCATAACGGTCTTCCACCGCCTGTAATCGATCATACATTGTATTCCAACACCTCTTTAACTTATTTTATTGGTGGATTGGCATGACATTTGCGACACACAGGGTAATAGTGGTCATTTCCGCCAATCATAATTTGTTCACCTGTATAAACTGGTTTTCCTTTGTCATCAACGCGCAG (double strand) [prfA promoter region]” was tested, and the binding was “no binding”.
